Experimental data reported in patent publication US5587468, “High affinity nucleic acid ligands to HIV integrase” (University Research Corporation).

Key:
HIV-1 integrase [1] = molecular target: T1, HIV-1 integrase (Human immunodeficiency virus 1 (BH10), UniProt P03366 P03366:1160-1447); assay: FP filter; binding completely abolished; conditions: tags: gift of Agouron Pharmaceuticals; BH10 clone
HIV-1 integrase [2] = molecular target: T1, HIV-1 integrase; assay: competition; inhibits binding of con+/- U5 DNA, 180 mM NaCl; conditions: tags: gift of Agouron Pharmaceuticals; BH10 clone; stem-loops with GNRA tetraloop and putative pseudoknot (11-14 with 28-31)
Procedure: 50 nM integrase was mixed with 20 nM double-stranded con± which mimics the U5 region of the HIV genome and incubated at 37° C. for 5 minutes. After this time, varying amounts of P5 or 30N RNA (i.e., random pool RNA) was added and the reaction mix (30 µl final volume) was incubated further for 20 minutes. The reactions were then placed at room temperature and passed over nitrocellulose filters. Filters were washed three times with 1 ml of 50 mM Tris-Cl pH 7.5. Filters were dried under a heat lamp and counted in a cocktail for 1 minute each. In the absence of RNA under these conditions, approximately 10% of the double-stranded DNA was retained on filter.

HIV-1 integrase [3] = molecular target: T1, HIV-1 integrase; assay: FP filter; nitrocellulose filter; 250 mM NaCl, 10 mM MnCl2, pH 7.5, 37 C; conditions: tags: gift of Agouron Pharmaceuticals; BH10 clone; stem-loops with GNRA tetraloop and putative pseudoknot (11-14 with 28-31)
Procedure: (§1) Binding assays were done by adding 5 µl of HIV-1 integrase protein, at the appropriate concentrations (i.e., ranging from 2 ×10^-6 with 3 fold dilutions to 9 ×10^-9 for 250 mM NaCl and 0.5 ×10^-7 with 3 fold dilutions to 2 ×10^-10 for 50 mM NaCl), to 45 µl of binding buffer (50 mM Na-HEPES pH 7.5, 250 mM NaCl, 2 mM DTT, 10 mM MnCl_2, 5 mM CHAPS) on ice, then adding 50,000 cpm of kinased RNA (<200 fmoles) in a volume of 3 to 4 µl. This mix is incubated at 37° C. for 20 minutes. The reactions were then passed over nitrocellulose filters, which were pre-equilibrated in buffer, and washed with a 50 mM Tris-Cl pH 7.5 solution. Filters were dried and counted in cocktail. The proteins used in these experiments were frozen and thawed only once. Each binding curve consisted of seven points and each point is an average since experiments were done in triplicate.

HIV-1 integrase [4] = molecular target: T1, HIV-1 integrase; assay: FP filter; nitrocellulose filter; 50 mM NaCl; conditions: tags: gift of Agouron Pharmaceuticals; BH10 clone; stem-loops with GNRA tetraloop and putative pseudoknot (11-14 with 28-31)
Procedure: as §1

HIV-1 integrase [5] = molecular target: T1, HIV-1 integrase; assay: FP filter; nitrocellulose filter; 250 mM NaCl; conditions: tags: gift of Agouron Pharmaceuticals; BH10 clone
Procedure: as §1

HIV-1 integrase [6] = molecular target: T1, HIV-1 integrase; assay: FP filter; deletion had no noticeable effect on binding; conditions: tags: gift of Agouron Pharmaceuticals; BH10 clone

B1: P5 deletion of 1-14 (ssRNA)
RNA: AACGCUCAACCAGUCUUGUGGCUUUGAAAGAGAGGAGUGUUCGACAUGAGGCCCGGAUCCGGC
- binding result (HIV-1 integrase [1]): no binding

B2: P5 deletion of 56-77 (ssRNA)
RNA: GGGAGCUCAGAAUAAACGCUCAACCAGUCUUGUGGCUUUGAAAGAGAGGAGUGUU
- binding result (HIV-1 integrase [1]): no binding

B3: P5 (ssRNA)
RNA: GGGAGCUCAGAAUAAACGCUCAACCAGUCUUGUGGCUUUGAAAGAGAGGAGUGUUCGACAUGAGGCCCGGAUCCGGC
- IC50 (HIV-1 integrase [2]): 6 nM
- Kd (HIV-1 integrase [3]): 12 nM
- Kd (HIV-1 integrase [4]): 2 nM

B4: P23 (ssRNA)
RNA: GGGAGCUCAGAAUAAACGCUCAACCAGUCUUAUGGCGUUGCAAGAUAGGGGCGUUCGACAUGAGGCCCGGAUCCGGC
- Kd (HIV-1 integrase [5]): 25 nM

B5: P5 truncate lacking 1-6 and 64-77 (ssRNA)
RNA: UCAGAAUAAACGCUCAACCAGUCUUGUGGCUUUGAAAGAGAGGAGUGUUCGACAUGA
- binding result (HIV-1 integrase [6]): binds
